Data on 2 molecules can be found in US20090304719A1.

In test [1] the target is VEGF (UniProt P15692). The experiment in a line: FACS, clone displayed on E. coli (CPX), labeled VEGF; with MMP-2 against without (FIG. 23).
For test [2], the target named is VEGF (UniProt P15692). Kind of test: FACS, clone displayed on E. coli (CPX), labeled VEGF; MMP-2 treated against untreated (FIG. 25). (In general: A flow cytometer gives signals particle by particle.)
Another test concerns the target anti-VCAM-1 scFv. The experiment in a line: FACS, peptide displayed on bacteria, 50 nM biotinylated anti-VCAM scFv then 1 nM anti-biotin PE; background without scFv printed as 142.

Where no end group is shown, it is not given here. CPX display scaffold = circularly permuted E. coli OmpX display scaffold

Sequence of VEGF (P15692 other isoform, or with tags, fused parts or gaps limits assumed): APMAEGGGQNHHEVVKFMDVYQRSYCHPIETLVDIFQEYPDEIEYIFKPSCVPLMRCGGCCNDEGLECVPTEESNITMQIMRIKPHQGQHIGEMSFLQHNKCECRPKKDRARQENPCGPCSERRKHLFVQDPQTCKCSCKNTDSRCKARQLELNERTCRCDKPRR

B1: ABP library clone 2-3B-5 (designed binder, not shown: large carriers; small tags and cut ends)
chain: GQSGQCEYAFGPLGLAGGGSGNFGYGKWEWDYGKWLEKVGGC-{CPX display scaffold}
modifications: not fully specified; cysteine pairing not given here
As to B1, in the test with VEGF [1], the fold increase in fluorescence in the presence of MMP-2 worked out at 11.8 fold. In the test with VEGF [2], the fold increase in fluorescence after enzyme cleavage amounted to 10 fold.

B2: BBB-08 (peptide)
peptide: GVVLTTMNFWDWITV
Take B2: the average fluorescence value in the test with anti-VCAM-1 scFv came out at 2620.
